Biological target: unbundled fibrils of Huntingtin exon 1 (about 5% biotinylated), immobilized on beads (UniProt P42858)
Test: radioactive binding assay, fibrils immobilised on beads

fold less binding as compared with HD1 and HD8: 10 fold
Substance: QBP1 (peptide)
